We go through three molecules from patent US20180037654A1 (ADURO BIOTECH HOLDINGS EUROPE B V, published 2018).

For orientation: IC50 means the concentration needed to halve the response being measured. Low values mean higher potency, high ones lower potency. Usually EC50 (read off the curve) stands for the concentration giving half of the maximal effect. A higher EC50 (read off the curve) goes with weaker potency. For orientation: EC50 means the concentration at which the effect is half-maximal. High values mean lower potency in that assay, low ones higher potency in that assay. By Kd is commonly meant the equilibrium constant for the complex coming apart. For orientation: koff means a measure of how fast the partners let go of each other. Lower therefore signals a long-lived complex. As usually defined, the kon is the rate constant with which the complex forms.

Assay [1] addresses T1, human CTLA-4 (Y166G and Y183G) expressed on CHO-K1.hCTLA-4 cells (human, UniProt P16410 36-223). Description: CELISA, blockade of biotinylated hCD86/Fc binding to CHO-K1.hCTLA-4 cells (Example 6). How it is done:
(§1) In short, CELISA for hCTLA-4 binding was performed on CHO-K1.hCTLA-4 cells. […] Once the cells were confluent culture medium was removed and cells were incubated for 1 hour with the hCTL4.27 antibodies and control antibodies (10 μg/ml and dilutions thereof) at 37° C., 5% CO₂ and 95% humidity. […] Cells were then washed with PBST followed by addition of Streptavidin-HRP conjugate on the cells, which was incubated for 1 hour at 37° C., 5% CO₂ and 95% humidity. […] Reactions were stopped with 0.5 M H₂SO₄ and absorbances were read at 450 and 610 nm. IC50 values represent the concentration at which half of the inhibition is observed.

In a further assay the target is T2, human CTLA-4 (human, UniProt P16410 36-223).
T2 construct: Endogenous CTLA-4 of stimulated human CD3+ T cells (stained after fixation and permeabilization) and membrane CTLA-4 of the Jurkat reporter cells; also called hCTLA-4; CTLA-4 expressed on human CD3+ T cells
T2 sequence: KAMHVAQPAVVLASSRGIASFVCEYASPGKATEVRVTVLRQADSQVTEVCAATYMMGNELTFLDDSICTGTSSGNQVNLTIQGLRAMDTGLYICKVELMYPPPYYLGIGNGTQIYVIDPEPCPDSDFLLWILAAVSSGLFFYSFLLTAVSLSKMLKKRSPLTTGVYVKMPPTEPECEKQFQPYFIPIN
Description: CELISA on CHO-K1 cells transiently transfected with human CTLA-4, panel Human. The protocol:
(§2) The cDNAs encoding these constructs (SEQ ID NO: 41 and 43, respectively) were synthesized and subcloned into the pCI-Neo vector (GeneArt). […] To this end CHO-K1 cells were transiently transfected, using Lipofectamine 2000 (Invitrogen), with the pCI-Neo vectors expressing human CTLA-4 (hCTLA-4), mouse CTLA-4 (mCTLA-4) (SEQ ID NO: 45), Hum-Mou-CTLA-4, and Mou-Hum-CTLA-4 respectively. The transfected cells were cultured at 37° C., 5% CO₂ and 95% humidity in medium (DMEM-F12 (Gibco) with 5% New Born Calf serum (Biowest) and Pen/Strep (Gibco)) until confluent. Subsequently, cells were trypsinized and seeded in tissue culture plates and cultured at 37° C., 5% CO₂ and 95% humidity in culture medium until confluent. Then, culture medium was removed and cells were incubated for 1 hour at 37° C., 5% CO₂ and 95% humidity with hCTLA-4 antibodies. Next, cells were washed with PBS/0.05% Tween (PBST) and incubated for 1 hour at 37° C., 5% CO₂ and 95% humidity with 1:2,000 goat-anti-human IgG-HRP (Jackson Immunoresearch). After that, cells were washed 3 times with PBST and anti-CTLA-4 immunoreactivity was visualized with TMB Stabilized Chromagen (Invitrogen).

Assay [2] addresses T1, human CTLA-4 (Y166G and Y183G) …. Description: CELISA on CHO-K1.hCTLA-4 cells (Example 6). How it is done: as §1
For assay [3] the target is unchanged. Description: CELISA, blockade of biotinylated hCD80/Fc binding to CHO-K1.hCTLA-4 cells. The protocol:
CHO-K1.hCTLA-4 cells were seeded in tissue culture plates and incubated at 37° C., 5% CO₂ and 95% humidity in culture medium. Once the cells were confluent culture medium was removed and cells were incubated for 1 hour with the humanized hCTL4.27 antibody variants (10 μg/ml and dilutions thereof) at 37° C., 5% CO₂ and 95% humidity. […] Cells were then washed with PBST followed by addition of Streptavidin-HRP conjugate on the cells, which was incubated for 1 hour at 37° C., 5% CO₂ and 95% humidity. […] Reactions were stopped with 0.5 M H₂SO₄ and absorbances were read at 450 and 610 nm. […] IC50 values represent the concentration at which half of the inhibition is observed.
Target sequence in this assay (P16410 36-223 Y201G/Y218G limits assumed): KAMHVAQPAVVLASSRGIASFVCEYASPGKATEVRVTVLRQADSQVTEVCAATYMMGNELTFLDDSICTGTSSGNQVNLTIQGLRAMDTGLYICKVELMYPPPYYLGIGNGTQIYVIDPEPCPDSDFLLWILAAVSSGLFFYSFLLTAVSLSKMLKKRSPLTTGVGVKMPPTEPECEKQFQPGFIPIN

The target in the next assay is T3, Hum-Mou-CTLA-4 (human/mouse chimera).
T3 construct: Human residues on strand 1, 2, 5 and 6 and mouse residues on strand 3, 4, 7 and 8; transiently expressed on CHO-K1 cells; also called human-mouse variant; human-mouse exchange mutant
T3 chain: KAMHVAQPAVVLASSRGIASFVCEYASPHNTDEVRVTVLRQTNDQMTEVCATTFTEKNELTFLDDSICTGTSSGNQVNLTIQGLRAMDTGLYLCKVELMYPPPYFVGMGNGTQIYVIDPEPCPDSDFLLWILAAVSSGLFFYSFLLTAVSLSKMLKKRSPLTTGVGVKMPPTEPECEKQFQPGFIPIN
Description: CELISA on CHO-K1 cells transiently transfected with Hum-Mou-CTLA-4, panel Human/Mouse. How it is done: as §2

The next assay addresses T4, Mou-Hum-CTLA-4 (mouse/human chimera).
T4 construct: Mouse residues on strand 1, 2, 5 and 6 and human residues on strand 3, 4, 7 and 8; transiently expressed on CHO-K1 cells; also called mouse-human variant; mouse-human exchange mutant
T4 chain: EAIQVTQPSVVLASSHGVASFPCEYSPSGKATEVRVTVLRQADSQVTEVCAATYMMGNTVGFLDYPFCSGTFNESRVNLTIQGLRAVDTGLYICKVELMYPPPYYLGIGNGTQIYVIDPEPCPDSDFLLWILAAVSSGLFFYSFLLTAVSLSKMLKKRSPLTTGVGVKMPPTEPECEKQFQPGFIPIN
Description: CELISA on CHO-K1 cells transiently transfected with Mou-Hum-CTLA-4, panel Mouse/Human. How it is done: as §2

The target of assay [4] is T1, human CTLA-4 (Y166G and Y183G) …. Kind of assay: CELISA, blockade of biotinylated hCD80/Fc binding to CHO-K1.hCTLA-4 cells (Example 6). How it is done: as §1
For assay [5] the target is unchanged. Kind of assay: CELISA on CHO-K1.hCTLA-4 cells. How it is done:
Binding of the humanized antibodies to hCTLA-4 was studied in CELISA format. CHO-K1.hCTLA-4 cells were seeded in culture medium (DMEM-F12 (Gibco) with 10% Fetal Bovine Serum (Hyclone) and Pen/Strep (Gibco)) in tissue culture plates and cultured at 37° C., 5% CO₂ and 95% humidity until they were confluent. Subsequently, culture medium was removed and cells were incubated for 1 hour at 37° C., 5% CO₂ and 95% humidity with purified hCTLA-4 antibodies (10 μg/ml and dilutions thereof). Next, cells were washed with PBS/0.05% Tween (PBST) and incubated for 1 hour at 37° C., 5% CO₂ and 95% humidity with goat-anti-human IgG-HRP (Southern Biotechnology) or goat-anti-mouse IgG-HRP (Southern Biotechnology). Subsequently, cells were washed 3 times with PBST and anti-hCTLA-4 immunoreactivity was visualized with TMB Stabilized Chromagen (Invitrogen). Reactions were stopped with 0.5 M H₂SO₄ and absorbances were read at 450 and 610 nm.
Target sequence in this assay (P16410 36-223 Y201G/Y218G limits assumed): as the sequence (P16410 36-223 Y201G/Y218G limits assumed) above

The target is the same in assay [6]. Kind of assay: CELISA, blockade of biotinylated hCD80/Fc binding to CHO-K1.hCTLA-4 cells (Example 6); blockade of hCD80/Fc binding to CHO-K1.hCTLA-4 cells. How it is done: as §1
In another assay the target is T5, rhCTLA-4/Fc/6His (human).
T5 construct: Bought from R&D Systems
Description: BLI (Octet RED96), antibody amine-coupled to biosensor, rhCTLA-4/Fc 2.5-40 nM, 1:1 global fit. The protocol: hCTLA4.27 binding kinetics and equilibrium binding constants were profiled using […] on the Octet RED96 and compared to several antibodies known in the art. […] Amine-reactive biosensors were pre-wet by immersing them in wells containing 0.1M MES pH=5.5 for 10 minutes. The biosensors were then activated using a 0.1M NHS/0.4M EDC mixture for 5 minutes. Antibodies were coupled by immersing the biosensors in a solution of 2.5 or 12 ug/mL antibody in 0.1M MES for 7.5 minutes. The biosensor surface was quenched using a solution of IM ethanolamine for 5 minutes. Biosensors were equilibrated in Octet kinetics buffer (ForteBio) for 5 minutes. Association of rhCTLA-4/Fc (R&D Systems) was observed by placing the biosensors in wells containing various rhCTLA-4/Fc concentrations (2.5-40 nM) and monitoring interferometry for 15 minutes. Dissociation was measured after transfer of the biosensors into kinetics buffer and monitoring of the interferometry signal for 45 minutes. The assay was run with a plate temperature of 30° C. The observed on and off rates (kon and kdis) were fit using a 1:1 binding global fit model comprising all concentrations tested, and the equilibrium binding constant KD was calculated.
(In general: In BLI a coated tip is dipped into the sample, and binding shifts an interference pattern.)

T5 sequence (chain, as listed by the source limits assumed): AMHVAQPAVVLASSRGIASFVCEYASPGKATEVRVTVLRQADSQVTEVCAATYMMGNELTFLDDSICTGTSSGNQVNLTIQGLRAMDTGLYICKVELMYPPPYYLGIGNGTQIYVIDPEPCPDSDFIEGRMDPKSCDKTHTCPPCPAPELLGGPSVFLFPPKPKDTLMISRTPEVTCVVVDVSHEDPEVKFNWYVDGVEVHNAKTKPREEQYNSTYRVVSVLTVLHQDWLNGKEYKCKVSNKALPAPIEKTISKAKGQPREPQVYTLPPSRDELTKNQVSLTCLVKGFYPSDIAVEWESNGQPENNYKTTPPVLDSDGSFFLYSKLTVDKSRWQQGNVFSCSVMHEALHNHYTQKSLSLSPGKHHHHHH

B1: hCTLA4.27A.C4 (antibody, V domains shown)
VH: QVQLQQPGAVLVRPGVSVKLSCKASGYSFTTYWMNWVKQRPGQGLEWIGMIHPSDSETSLNQAFKDKATLTIDKSSSTAYMQLSSPTSEDSAVYFCARMGRRNPYYFDYWGQGTTLTVSS
VL: DIQMTQSPVSLSVSVGETVTITCRPSENLYTNLAWYQQKQGKSPQLLVYGATNLADGVPSRFSGSGSGTQYSLRINSLQSEDFGTYYCQHLWGTPFTFGSGTKLELK
notes: Chimeric: mouse variable domains on human IgG4, kappa; also called hCTLA4.27A chimeric hIgG4
For the molecule B1, the results for the IC50 in assay [1], in assay [3] and in [4] were 1.21 nM, 1.61 nM and 1.6 nM, respectively. The figures for the “EC50 (read off the curve)” value with human CTLA-4 and with Hum-Mou-CTLA-4 were about 0.06 nM and about 0.08 nM, respectively. In addition, the EC50 worked out at 0.053 nM in [2] and 0.033 nM in [5]. The binding result with Mou-Hum-CTLA-4 is “no binding (tested: log nM about 1.8 (about 60 nM))”.

B2: hCTLA4.27A.C1 (antibody, V domains shown)
VH: B1 VH
VL: B1 VL
notes: Chimeric: mouse variable domains on human IgG1, kappa; also called hCTLA4.27A chimeric hIgG1
Consider B2, for which the IC50 in assay [1] came out at 1.18 nM; in [3], 1.53 nM; in assay [4], 1.45 nM. The results for the EC50 in [2] and in [5] were 0.034 nM and 0.022 nM, respectively.

B3: hCTLA4.27A (antibody, V domains shown)
VH: B1 VH
VL: B1 VL
notes: also called mouse hCTLA4.27A; parental antibody
Turning to B3, the IC50 in assay [1] amounted to 2.17 nM; in [6] it was 2.71 nM; in assay [3] it was 2.17 nM. Further, the EC50 in [2] turned out to be 0.053 nM; in assay [5], 0.048 nM. In addition, the Kd with rhCTLA-4/Fc/6His was determined as 2 nM. Further, the koff with rhCTLA-4/Fc/6His stood at 0.00045 s⁻¹. The molecule also had a kon in the assay with rhCTLA-4/Fc/6His of 500000 M⁻¹ s⁻¹.
